Experiments:
Assay in all cases: yeast two-hybrid, growth on -ADE -HIS
S. cerevisiae Rad51 = molecular target: T1, S. cerevisiae Rad51 (S. cerevisiae, UniProt P25454 1-400, limits assumed)
T1 construct: Y2H fusion in yeast
T1 sequence (looked up): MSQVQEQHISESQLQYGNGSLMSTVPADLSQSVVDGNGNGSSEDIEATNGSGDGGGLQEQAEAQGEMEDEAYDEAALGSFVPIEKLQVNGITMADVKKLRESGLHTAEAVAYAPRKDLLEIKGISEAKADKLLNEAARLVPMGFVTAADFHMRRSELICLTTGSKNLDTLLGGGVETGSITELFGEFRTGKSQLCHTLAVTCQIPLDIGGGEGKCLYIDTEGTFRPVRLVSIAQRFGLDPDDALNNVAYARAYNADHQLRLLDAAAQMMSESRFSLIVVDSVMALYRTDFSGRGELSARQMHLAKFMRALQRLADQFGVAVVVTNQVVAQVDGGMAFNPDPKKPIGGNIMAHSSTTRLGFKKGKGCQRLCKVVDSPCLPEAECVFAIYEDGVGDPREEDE
Procedure: (§1) RAD51-binding peptides were tested for ability to bind RAD51 of several different species using a “conventional” Y2H assay, where interaction between the two-hybrid pair drove expression of ADE2 and HIS genes. In this Y2H assay the two-hybrid pair was RAD51 and the compound 5 peptide sequence (SEQ ID NO.:5), so that cells having the interaction would survive (+) and cells not having the interaction would die (−) on selective media (−ADE, −HIS).

H. sapiens Rad51 = molecular target: T2, H. sapiens Rad51 (H. sapiens, UniProt Q06609 1-339)
T2 construct: Expressed in yeast as a two-hybrid fusion; also called human RAD51
T2 sequence: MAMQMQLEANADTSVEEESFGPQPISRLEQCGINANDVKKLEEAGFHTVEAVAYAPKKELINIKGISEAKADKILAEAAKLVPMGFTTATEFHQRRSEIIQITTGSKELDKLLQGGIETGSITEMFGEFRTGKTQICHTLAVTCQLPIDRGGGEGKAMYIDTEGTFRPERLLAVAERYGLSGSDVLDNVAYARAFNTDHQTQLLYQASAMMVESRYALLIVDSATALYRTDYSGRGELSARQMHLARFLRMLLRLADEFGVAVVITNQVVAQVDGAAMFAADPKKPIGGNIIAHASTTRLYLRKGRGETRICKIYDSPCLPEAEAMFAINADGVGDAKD
Procedure: as §1

G. gallus Rad51 = molecular target: T3, G. gallus Rad51 (G. gallus, UniProt P37383 1-339, limits assumed)
T3 construct: Y2H fusion in yeast
T3 sequence (looked up): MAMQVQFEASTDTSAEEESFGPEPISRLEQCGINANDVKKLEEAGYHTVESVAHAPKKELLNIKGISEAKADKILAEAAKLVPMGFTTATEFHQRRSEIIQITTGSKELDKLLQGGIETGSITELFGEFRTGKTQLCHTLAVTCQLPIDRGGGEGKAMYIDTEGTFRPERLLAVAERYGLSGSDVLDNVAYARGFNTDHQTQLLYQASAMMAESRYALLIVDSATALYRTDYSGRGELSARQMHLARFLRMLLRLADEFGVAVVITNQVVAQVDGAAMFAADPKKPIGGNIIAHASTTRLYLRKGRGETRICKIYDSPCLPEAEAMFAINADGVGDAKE
Procedure: as §1

S. pombe Rad51 = molecular target: T4, S. pombe Rad51 (S. pombe, UniProt P36601 1-365, limits assumed)
T4 construct: Y2H fusion in yeast
T4 sequence (looked up): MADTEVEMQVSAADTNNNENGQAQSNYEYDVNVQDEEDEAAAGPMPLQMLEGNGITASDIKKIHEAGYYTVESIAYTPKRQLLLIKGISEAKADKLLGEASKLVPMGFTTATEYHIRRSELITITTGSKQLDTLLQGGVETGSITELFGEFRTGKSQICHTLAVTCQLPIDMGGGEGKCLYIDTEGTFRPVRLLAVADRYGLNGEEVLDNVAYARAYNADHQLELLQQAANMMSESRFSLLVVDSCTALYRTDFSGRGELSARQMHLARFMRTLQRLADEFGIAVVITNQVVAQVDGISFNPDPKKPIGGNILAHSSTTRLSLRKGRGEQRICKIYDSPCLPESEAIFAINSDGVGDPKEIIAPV
Procedure: as §1

B1: compound 5 peptide sequence (SEQ ID NO.:5) (peptide)
peptide: KRRRRRRRKRLGVRLRVSRML
S. cerevisiae Rad51
  binding result: no binding
H. sapiens Rad51
  binding result: binds
G. gallus Rad51
  binding result: binds
S. pombe Rad51
  binding result: binds
